Laboratory results: patent publication US20210032299A1 (Eli Lilly, published 2021)
Starred links: 1 amine or outer side, 2 acyl side, 3 side chain; linkers in the order of their positions; H or OH if unused. Non-standard residues stand in square brackets, D forms with d. Groups on a side chain read outwards from the residue. No end group written: not given here. *: point of attachment. C20 diacid = O=C(O)CCCCCCCCCCCCCCCCCCC(=O)*; αMePhe(2-F) = C[C@](N)(Cc1ccccc1F)C(=O)O; γGlu = O=C(O)[C@H](CCC(=O)[*:2])N[*:1]; 4Pal = N[C@@H](Cc1ccncc1)C(=O)O; AEEA = NCCOCCOCC(=O)O; Aib = CC(C)(N)C(=O)O

B1: Example 36 (peptide)
peptide: Y[Aib]EGT[αMePhe(2-F)]ISDYSIALDKK([AEEA-AEEA-γGlu-C20 diacid])HQ[Aib]DFVEYLLETGPSSGAPPPS-NH2
modifications: N-terminus assumed
SMILES: CC[C@H](C)[C@H](NC(=O)[C@H](CO)NC(=O)[C@H](Cc1ccc(O)cc1)NC(=O)[C@H](CC(=O)O)NC(=O)[C@H](CO)NC(=O)[C@@H](NC(=O)[C@](C)(Cc1ccccc1F)NC(=O)[C@@H](NC(=O)CNC(=O)[C@H](CCC(=O)O)NC(=O)C(C)(C)NC(=O)[C@@H](N)Cc1ccc(O)cc1)[C@@H](C)O)[C@@H](C)CC)C(=O)N[C@@H](C)C(=O)N[C@@H](CC(C)C)C(=O)N[C@@H](CC(=O)O)C(=O)N[C@@H](CCCCN)C(=O)N[C@@H](CCCCNC(=O)COCCOCCNC(=O)COCCOCCNC(=O)CC[C@H](NC(=O)CCCCCCCCCCCCCCCCCCC(=O)O)C(=O)O)C(=O)N[C@@H](Cc1c[nH]cn1)C(=O)N[C@@H](CCC(N)=O)C(=O)NC(C)(C)C(=O)N[C@@H](CC(=O)O)C(=O)N[C@@H](Cc1ccccc1)C(=O)N[C@H](C(=O)N[C@@H](CCC(=O)O)C(=O)N[C@@H](Cc1ccc(O)cc1)C(=O)N[C@@H](CC(C)C)C(=O)N[C@@H](CC(C)C)C(=O)N[C@@H](CCC(=O)O)C(=O)N[C@H](C(=O)NCC(=O)N1CCC[C@H]1C(=O)N[C@@H](CO)C(=O)N[C@@H](CO)C(=O)NCC(=O)N[C@@H](C)C(=O)N1CCC[C@H]1C(=O)N1CCC[C@H]1C(=O)N1CCC[C@H]1C(=O)N[C@@H](CO)C(N)=O)[C@@H](C)O)C(C)C
B2: Example 38 (peptide)
peptide: Y[Aib]EGT[αMePhe(2-F)]ISDYSIALDKK([AEEA-AEEA-γGlu-C20 diacid])HQ[Aib]DFVE[4Pal]LLETGPSSGAPPPS-NH2
modifications: N-terminus assumed
SMILES: CC[C@H](C)[C@H](NC(=O)[C@H](CO)NC(=O)[C@H](Cc1ccc(O)cc1)NC(=O)[C@H](CC(=O)O)NC(=O)[C@H](CO)NC(=O)[C@@H](NC(=O)[C@](C)(Cc1ccccc1F)NC(=O)[C@@H](NC(=O)CNC(=O)[C@H](CCC(=O)O)NC(=O)C(C)(C)NC(=O)[C@@H](N)Cc1ccc(O)cc1)[C@@H](C)O)[C@@H](C)CC)C(=O)N[C@@H](C)C(=O)N[C@@H](CC(C)C)C(=O)N[C@@H](CC(=O)O)C(=O)N[C@@H](CCCCN)C(=O)N[C@@H](CCCCNC(=O)COCCOCCNC(=O)COCCOCCNC(=O)CC[C@H](NC(=O)CCCCCCCCCCCCCCCCCCC(=O)O)C(=O)O)C(=O)N[C@@H](Cc1c[nH]cn1)C(=O)N[C@@H](CCC(N)=O)C(=O)NC(C)(C)C(=O)N[C@@H](CC(=O)O)C(=O)N[C@@H](Cc1ccccc1)C(=O)N[C@H](C(=O)N[C@@H](CCC(=O)O)C(=O)N[C@@H](Cc1ccncc1)C(=O)N[C@@H](CC(C)C)C(=O)N[C@@H](CC(C)C)C(=O)N[C@@H](CCC(=O)O)C(=O)N[C@H](C(=O)NCC(=O)N1CCC[C@H]1C(=O)N[C@@H](CO)C(=O)N[C@@H](CO)C(=O)NCC(=O)N[C@@H](C)C(=O)N1CCC[C@H]1C(=O)N1CCC[C@H]1C(=O)N1CCC[C@H]1C(=O)N[C@@H](CO)C(N)=O)[C@@H](C)O)C(C)C
B3: Example 40 (peptide)
peptide: Y[Aib]EGT[αMePhe(2-F)]ISDYSIALDKK([AEEA-AEEA-γGlu-C20 diacid])HQ[Aib]DFVEWLLETGPSSGAPPPS-NH2
modifications: N-terminus assumed
SMILES: CC[C@H](C)[C@H](NC(=O)[C@H](CO)NC(=O)[C@H](Cc1ccc(O)cc1)NC(=O)[C@H](CC(=O)O)NC(=O)[C@H](CO)NC(=O)[C@@H](NC(=O)[C@](C)(Cc1ccccc1F)NC(=O)[C@@H](NC(=O)CNC(=O)[C@H](CCC(=O)O)NC(=O)C(C)(C)NC(=O)[C@@H](N)Cc1ccc(O)cc1)[C@@H](C)O)[C@@H](C)CC)C(=O)N[C@@H](C)C(=O)N[C@@H](CC(C)C)C(=O)N[C@@H](CC(=O)O)C(=O)N[C@@H](CCCCN)C(=O)N[C@@H](CCCCNC(=O)COCCOCCNC(=O)COCCOCCNC(=O)CC[C@H](NC(=O)CCCCCCCCCCCCCCCCCCC(=O)O)C(=O)O)C(=O)N[C@@H](Cc1c[nH]cn1)C(=O)N[C@@H](CCC(N)=O)C(=O)NC(C)(C)C(=O)N[C@@H](CC(=O)O)C(=O)N[C@@H](Cc1ccccc1)C(=O)N[C@H](C(=O)N[C@@H](CCC(=O)O)C(=O)N[C@@H](Cc1c[nH]c2ccccc12)C(=O)N[C@@H](CC(C)C)C(=O)N[C@@H](CC(C)C)C(=O)N[C@@H](CCC(=O)O)C(=O)N[C@H](C(=O)NCC(=O)N1CCC[C@H]1C(=O)N[C@@H](CO)C(=O)N[C@@H](CO)C(=O)NCC(=O)N[C@@H](C)C(=O)N1CCC[C@H]1C(=O)N1CCC[C@H]1C(=O)N1CCC[C@H]1C(=O)N[C@@H](CO)C(N)=O)[C@@H](C)O)C(C)C
B4: Example 39 (peptide)
peptide: Y[Aib]EGT[αMePhe(2-F)]ISDYSIALDKK([AEEA-AEEA-γGlu-C20 diacid])HQ[Aib]DFVE[4Pal]LLEGGPSSGAPPPS-NH2
modifications: N-terminus assumed
SMILES: CC[C@H](C)[C@H](NC(=O)[C@H](CO)NC(=O)[C@H](Cc1ccc(O)cc1)NC(=O)[C@H](CC(=O)O)NC(=O)[C@H](CO)NC(=O)[C@@H](NC(=O)[C@](C)(Cc1ccccc1F)NC(=O)[C@@H](NC(=O)CNC(=O)[C@H](CCC(=O)O)NC(=O)C(C)(C)NC(=O)[C@@H](N)Cc1ccc(O)cc1)[C@@H](C)O)[C@@H](C)CC)C(=O)N[C@@H](C)C(=O)N[C@@H](CC(C)C)C(=O)N[C@@H](CC(=O)O)C(=O)N[C@@H](CCCCN)C(=O)N[C@@H](CCCCNC(=O)COCCOCCNC(=O)COCCOCCNC(=O)CC[C@H](NC(=O)CCCCCCCCCCCCCCCCCCC(=O)O)C(=O)O)C(=O)N[C@@H](Cc1c[nH]cn1)C(=O)N[C@@H](CCC(N)=O)C(=O)NC(C)(C)C(=O)N[C@@H](CC(=O)O)C(=O)N[C@@H](Cc1ccccc1)C(=O)N[C@H](C(=O)N[C@@H](CCC(=O)O)C(=O)N[C@@H](Cc1ccncc1)C(=O)N[C@@H](CC(C)C)C(=O)N[C@@H](CC(C)C)C(=O)N[C@@H](CCC(=O)O)C(=O)NCC(=O)NCC(=O)N1CCC[C@H]1C(=O)N[C@@H](CO)C(=O)N[C@@H](CO)C(=O)NCC(=O)N[C@@H](C)C(=O)N1CCC[C@H]1C(=O)N1CCC[C@H]1C(=O)N1CCC[C@H]1C(=O)N[C@@H](CO)C(N)=O)C(C)C
B5: Example 37 (peptide)
peptide: Y[Aib]EGT[αMePhe(2-F)]ISDYSIALDKK([AEEA-AEEA-γGlu-C20 diacid])HQ[Aib]DFVEYLLEGGPSSGAPPPS-NH2
modifications: N-terminus assumed
SMILES: CC[C@H](C)[C@H](NC(=O)[C@H](CO)NC(=O)[C@H](Cc1ccc(O)cc1)NC(=O)[C@H](CC(=O)O)NC(=O)[C@H](CO)NC(=O)[C@@H](NC(=O)[C@](C)(Cc1ccccc1F)NC(=O)[C@@H](NC(=O)CNC(=O)[C@H](CCC(=O)O)NC(=O)C(C)(C)NC(=O)[C@@H](N)Cc1ccc(O)cc1)[C@@H](C)O)[C@@H](C)CC)C(=O)N[C@@H](C)C(=O)N[C@@H](CC(C)C)C(=O)N[C@@H](CC(=O)O)C(=O)N[C@@H](CCCCN)C(=O)N[C@@H](CCCCNC(=O)COCCOCCNC(=O)COCCOCCNC(=O)CC[C@H](NC(=O)CCCCCCCCCCCCCCCCCCC(=O)O)C(=O)O)C(=O)N[C@@H](Cc1c[nH]cn1)C(=O)N[C@@H](CCC(N)=O)C(=O)NC(C)(C)C(=O)N[C@@H](CC(=O)O)C(=O)N[C@@H](Cc1ccccc1)C(=O)N[C@H](C(=O)N[C@@H](CCC(=O)O)C(=O)N[C@@H](Cc1ccc(O)cc1)C(=O)N[C@@H](CC(C)C)C(=O)N[C@@H](CC(C)C)C(=O)N[C@@H](CCC(=O)O)C(=O)NCC(=O)NCC(=O)N1CCC[C@H]1C(=O)N[C@@H](CO)C(=O)N[C@@H](CO)C(=O)NCC(=O)N[C@@H](C)C(=O)N1CCC[C@H]1C(=O)N1CCC[C@H]1C(=O)N1CCC[C@H]1C(=O)N[C@@H](CO)C(N)=O)C(C)C

biological target: human glucagon receptor (human, UniProt P47871 26-477); assay: cell-based or functional assay
Sequence (P47871 26-477): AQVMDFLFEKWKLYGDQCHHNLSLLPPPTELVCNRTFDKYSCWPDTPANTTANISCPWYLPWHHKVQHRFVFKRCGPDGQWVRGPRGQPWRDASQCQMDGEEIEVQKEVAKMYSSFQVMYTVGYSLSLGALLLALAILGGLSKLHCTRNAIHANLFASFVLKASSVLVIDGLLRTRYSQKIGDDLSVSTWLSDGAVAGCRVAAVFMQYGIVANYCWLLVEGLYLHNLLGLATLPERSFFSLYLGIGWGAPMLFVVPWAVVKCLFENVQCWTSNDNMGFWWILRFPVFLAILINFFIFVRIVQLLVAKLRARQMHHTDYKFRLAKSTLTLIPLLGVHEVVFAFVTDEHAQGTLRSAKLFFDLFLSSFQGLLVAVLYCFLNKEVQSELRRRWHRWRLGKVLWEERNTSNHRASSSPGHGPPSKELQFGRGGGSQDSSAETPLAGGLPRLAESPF

| Binder | hGcgR cAMP Rel EC50 |
| --- | --- |
| B1 | > 5000 nM |
| B2 | > 5000 nM |
| B3 | > 5000 nM |
| B4 | > 5000 nM |
| B5 | > 5000 nM |

biological target: T1, human glucose-dependent insulinotropic peptide receptor (human, UniProt P48546 22-466); assay: cell-based or functional assay
T1 sequence (looked up): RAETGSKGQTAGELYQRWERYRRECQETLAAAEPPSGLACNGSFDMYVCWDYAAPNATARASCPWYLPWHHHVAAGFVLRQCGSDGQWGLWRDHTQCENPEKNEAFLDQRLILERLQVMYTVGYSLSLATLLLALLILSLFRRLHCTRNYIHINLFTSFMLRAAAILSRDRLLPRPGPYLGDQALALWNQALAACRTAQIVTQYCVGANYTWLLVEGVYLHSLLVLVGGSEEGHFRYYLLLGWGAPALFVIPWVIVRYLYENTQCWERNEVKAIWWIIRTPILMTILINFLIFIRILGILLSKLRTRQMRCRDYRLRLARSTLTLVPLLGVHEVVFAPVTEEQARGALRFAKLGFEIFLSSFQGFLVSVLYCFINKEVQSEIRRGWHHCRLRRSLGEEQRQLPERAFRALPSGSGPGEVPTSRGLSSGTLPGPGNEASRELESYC

| Binder | hGIPR cAMP Rel EC50 |
| --- | --- |
| B1 | 0.0543 nM |
| B2 | 0.0368 nM |
| B3 | 0.033 nM |
| B4 | 0.0112 nM |
| B5 | 0.036 nM |

biological target: human GLP-1 receptor (human, UniProt P43220 24-463); assay: cell-based or functional assay

| Binder | hGLP1R cAMP Rel EC50 |
| --- | --- |
| B1 | 1080 nM |
| B2 | 1390 nM |
| B3 | 2330 nM |
| B4 | 3330 nM |
| B5 | 61.1 nM |
